This data set has as its system D11-CD8stk-IL2Rg_A5-Hinge-IL2Rb.

D11-CD8stk-IL2Rg_A5-Hinge-IL2Rb, sequence (chain, as listed by the source, chain 1 of 2): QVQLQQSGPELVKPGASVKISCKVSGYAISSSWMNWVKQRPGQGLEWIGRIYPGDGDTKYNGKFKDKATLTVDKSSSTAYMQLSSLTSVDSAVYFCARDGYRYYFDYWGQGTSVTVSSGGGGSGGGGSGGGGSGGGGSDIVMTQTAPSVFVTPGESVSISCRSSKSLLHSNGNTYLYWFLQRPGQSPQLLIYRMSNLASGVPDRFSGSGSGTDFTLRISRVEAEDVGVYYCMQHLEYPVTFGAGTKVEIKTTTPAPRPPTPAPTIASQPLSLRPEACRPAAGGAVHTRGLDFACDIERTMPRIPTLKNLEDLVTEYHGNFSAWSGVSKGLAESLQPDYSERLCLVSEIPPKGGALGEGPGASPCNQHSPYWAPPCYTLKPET
D11-CD8stk-IL2Rg_A5-Hinge-IL2Rb, sequence (chain, as listed by the source, chain 2 of 2): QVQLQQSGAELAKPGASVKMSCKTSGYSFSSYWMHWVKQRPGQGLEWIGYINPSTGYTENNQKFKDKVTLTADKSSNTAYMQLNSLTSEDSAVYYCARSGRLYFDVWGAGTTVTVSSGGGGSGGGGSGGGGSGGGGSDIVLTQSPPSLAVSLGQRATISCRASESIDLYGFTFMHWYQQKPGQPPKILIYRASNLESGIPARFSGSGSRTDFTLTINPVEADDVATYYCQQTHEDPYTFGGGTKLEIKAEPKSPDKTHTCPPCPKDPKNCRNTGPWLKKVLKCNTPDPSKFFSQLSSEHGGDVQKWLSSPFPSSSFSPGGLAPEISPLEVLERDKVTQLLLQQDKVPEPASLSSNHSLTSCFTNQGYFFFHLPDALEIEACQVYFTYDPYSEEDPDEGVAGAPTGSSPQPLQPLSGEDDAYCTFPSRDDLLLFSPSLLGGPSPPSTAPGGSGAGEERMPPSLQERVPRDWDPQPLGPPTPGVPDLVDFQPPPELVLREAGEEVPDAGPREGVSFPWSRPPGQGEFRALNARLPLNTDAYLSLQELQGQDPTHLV

With prostate-specific antigen (PSA), the “phosphorylation of Y694 of STAT5 (phosphoflow), 500 ng/mL PSA for 1 or 4 hours” value is “In the cells expressing the PSA CCR, the presence of PSA lead to increasing STAT5 phosphorylation with time”.

The values above are taken from US20210040228.
